Test results published in patent publication US20210277112A1 (BIOND BIOLOGICS, published 2021).
Numbering of substitutions follows the chain as printed. Where two headings read alike, the source gives them in different places.

What was measured:
[1] = target: T1, recombinant ILT2 (human, UniProt Q8NHL6 24-461); test: binding ELISA, hILT2-Fc, negative control
T1 construct: also called LILRB1; LIR1

[2] = target: T2, ILT6 (UniProt Q8N6C8 24-439); test: binding ELISA, column hILT6-His, negative control
[3] = target: T3, LILRA1 (UniProt O75019 17-461, limits assumed); test: binding ELISA, column hLILRA1-His, negative control
[4] = target: T4, PIRB (UniProt P97484 25-642, limits assumed); test: binding ELISA, column PIRB, negative control
T4 sequence (looked up): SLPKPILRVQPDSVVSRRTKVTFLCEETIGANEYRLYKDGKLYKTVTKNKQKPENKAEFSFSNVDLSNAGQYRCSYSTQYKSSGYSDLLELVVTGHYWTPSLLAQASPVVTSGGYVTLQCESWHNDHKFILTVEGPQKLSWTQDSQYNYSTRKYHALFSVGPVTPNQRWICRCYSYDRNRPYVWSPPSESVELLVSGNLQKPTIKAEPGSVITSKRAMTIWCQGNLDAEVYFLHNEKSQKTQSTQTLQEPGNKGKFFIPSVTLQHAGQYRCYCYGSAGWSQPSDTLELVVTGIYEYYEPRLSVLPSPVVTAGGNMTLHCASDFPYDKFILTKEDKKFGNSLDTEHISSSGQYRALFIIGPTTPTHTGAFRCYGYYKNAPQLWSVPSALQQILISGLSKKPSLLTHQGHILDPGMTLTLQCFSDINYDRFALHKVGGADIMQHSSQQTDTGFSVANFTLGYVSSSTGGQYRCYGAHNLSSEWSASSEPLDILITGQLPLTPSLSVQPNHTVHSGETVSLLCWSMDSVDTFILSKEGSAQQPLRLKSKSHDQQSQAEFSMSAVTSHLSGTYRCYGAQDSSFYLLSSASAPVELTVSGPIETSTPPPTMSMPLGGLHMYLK

[5] = target: T1, recombinant ILT2; test: binding ELISA, hILT2-Fc; positive control is GHI/75 by paragraph 227
[6] = target: T5, ILT2/CD3z chimera on BW5417.3 cells (human; mouse, UniProt P24161 31-164, limits assumed); test: flow cytometry titration on BW cells transfected with human ILT2, y axis FAB
T5 construct: domain: trans-membrane and cytoplasmic residues; Expressed on the surface of the mouse BW T cell line; also called BW-ILT2; BW/ILT2z

[7] = target: T6, recombinant human ILT2-Fc conjugated with biotin (human, UniProt Q8NHL6 24-458, limits assumed, conjugated with biotin (sites not given)); test: flow cytometry blocking assay: ILT2-biotin binding to cells expressing HLA-G
T6 construct: It is written here as ILT2 then Fc; also called ILT2-biotin; biotinylated ILT2; not shown: Fc portion of human IgG1
Method: (§1) Flow cytometry blocking assay—Recombinant human ILT2 protein fused with the Fc portion of human IgG1 at the N terminal was conjugated with biotin (Innova bioscience). A total of 5×10⁵ A375/HLA-G1 cells were incubated in a volume of 100 μL in the presence of anti-ILT2 clone #1 or isotype matched control mAb and ILT2-Fc conjugated with biotin (10 μg/mL) for 30 minutes at room temperature. After several washing steps, streptavidin-PE was added at a final concentration of 0.2 μg/mL and incubated for 30 min on ice followed by FACS analysis.
(§2) The ability of the generated anti-ILT2 antibodies to block the interaction between HLA-G and ILT2 was tested using four different assays. First, a blocking flow cytometry assay was performed. HLA-G transfected A375 cells were incubated with biotinylated ILT2 in the presence of the antibodies of the invention and a positive control antibody. The commercially available anti-ILT2 antibody GHI/75 (BioLegend, cat #333704) was used as the positive control. The binding of ILT2-biotin to the cells was determined using Streptavidin-PE by flow cytometry analysis (FIG. 8A). The percent of blocking was determined by normalizing to a negative control (ILT2 binding in the presence of control IgG). […] The percentage of blocking was calculated at various concentrations of antibody (FIG. 8C).

[8] = target: T6, recombinant human ILT2-Fc conjugated …; test: as above; remark: listed apart in the source
Method: as §1, §2

[9] = target: T3, LILRA1; test: binding ELISA, column hLILRA1-His
[10] = target: T1, recombinant ILT2; test: competition ELISA on ILT2: biotinylated 15G8 at 1 µg/ml as the labelled competitor, unbiotinylated 15G8 varied
Method: This raises the question of the epitope of GHI/75 and other commercial antibodies. Though the epitopes of these antibodies are not published a competition ELISA assay was performed to see if 15G8 and GHI/75 and HP-F1 could bind ILT2 at the same time. Biotinylated 15G8 antibody was used at a constant concentration (1 μg/ml) in an ILT2 binding ELISA. GHI/75 and HP-F1 were added in increasing concentrations and competition was assessed. Regardless of the amount of these two antibodies added, neither one competed with 15G8 for binding to ILT2 (FIG. 19). In contrast, when naked (unbiotinylated) 15G8 was added, the binding decreased in a dose dependent manner as expected. […] This makes 15G8 the first anti-ILT2 antibody ever identified to bind this epitope, to specifically block interaction with B2M and to be able to simultaneously activate/recruit T cells, NK cells and macrophages/dendritic cells against cancer.

[11] = target: T2, ILT6; test: binding ELISA, column hILT6-His
[12] = target: T4, PIRB; test: binding ELISA, column PIRB

T6 sequence (Q8NHL6 24-458 limits assumed): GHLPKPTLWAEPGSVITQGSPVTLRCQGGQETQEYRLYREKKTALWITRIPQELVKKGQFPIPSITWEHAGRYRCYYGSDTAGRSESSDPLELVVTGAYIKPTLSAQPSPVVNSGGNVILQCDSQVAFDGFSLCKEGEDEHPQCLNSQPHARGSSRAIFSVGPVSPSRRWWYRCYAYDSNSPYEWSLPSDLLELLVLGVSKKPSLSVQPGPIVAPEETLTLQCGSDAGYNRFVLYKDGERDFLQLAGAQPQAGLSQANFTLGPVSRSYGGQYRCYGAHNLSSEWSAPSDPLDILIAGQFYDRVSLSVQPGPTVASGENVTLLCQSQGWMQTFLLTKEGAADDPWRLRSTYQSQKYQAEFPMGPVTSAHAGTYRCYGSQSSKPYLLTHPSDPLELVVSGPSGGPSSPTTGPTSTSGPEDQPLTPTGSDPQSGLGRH
T1 sequence (Q8NHL6 24-461 limits assumed): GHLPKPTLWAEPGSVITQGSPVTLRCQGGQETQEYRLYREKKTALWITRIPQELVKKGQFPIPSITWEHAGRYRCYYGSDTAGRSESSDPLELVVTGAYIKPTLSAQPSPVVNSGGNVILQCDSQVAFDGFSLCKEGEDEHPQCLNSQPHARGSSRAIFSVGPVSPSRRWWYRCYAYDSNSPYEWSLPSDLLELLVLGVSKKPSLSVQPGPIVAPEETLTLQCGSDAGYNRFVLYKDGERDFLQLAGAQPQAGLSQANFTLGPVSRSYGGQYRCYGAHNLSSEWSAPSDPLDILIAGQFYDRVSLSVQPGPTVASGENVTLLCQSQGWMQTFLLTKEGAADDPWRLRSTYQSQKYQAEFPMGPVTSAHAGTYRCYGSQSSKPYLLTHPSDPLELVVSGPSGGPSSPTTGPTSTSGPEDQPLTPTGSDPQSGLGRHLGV
T2 sequence (Q8N6C8 24-439 limits assumed): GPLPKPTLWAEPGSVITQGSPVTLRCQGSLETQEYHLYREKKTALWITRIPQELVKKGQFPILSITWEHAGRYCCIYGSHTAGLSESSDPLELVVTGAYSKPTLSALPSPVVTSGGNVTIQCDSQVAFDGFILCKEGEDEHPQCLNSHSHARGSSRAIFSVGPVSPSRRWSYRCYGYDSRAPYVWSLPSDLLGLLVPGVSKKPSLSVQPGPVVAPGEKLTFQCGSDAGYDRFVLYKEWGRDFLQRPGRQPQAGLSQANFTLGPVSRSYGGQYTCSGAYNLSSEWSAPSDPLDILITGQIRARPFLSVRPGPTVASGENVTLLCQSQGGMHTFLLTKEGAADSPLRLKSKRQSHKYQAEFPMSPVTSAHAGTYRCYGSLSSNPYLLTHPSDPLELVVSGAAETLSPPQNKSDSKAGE
T3 sequence (O75019 17-461 limits assumed): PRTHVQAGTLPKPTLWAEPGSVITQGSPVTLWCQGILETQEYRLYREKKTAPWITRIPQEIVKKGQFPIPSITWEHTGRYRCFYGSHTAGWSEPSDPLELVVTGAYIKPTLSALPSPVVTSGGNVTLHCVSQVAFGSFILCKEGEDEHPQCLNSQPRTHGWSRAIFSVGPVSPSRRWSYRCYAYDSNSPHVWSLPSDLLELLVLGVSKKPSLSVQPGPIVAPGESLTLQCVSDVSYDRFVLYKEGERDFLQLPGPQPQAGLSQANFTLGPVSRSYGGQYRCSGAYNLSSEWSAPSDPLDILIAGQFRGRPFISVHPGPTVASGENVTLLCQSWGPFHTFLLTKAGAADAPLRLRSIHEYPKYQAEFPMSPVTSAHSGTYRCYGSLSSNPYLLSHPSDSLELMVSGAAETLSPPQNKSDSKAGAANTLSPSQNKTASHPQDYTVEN
T5 sequence (P24161 other isoform, or with tags, fused parts or gaps mutant limits assumed): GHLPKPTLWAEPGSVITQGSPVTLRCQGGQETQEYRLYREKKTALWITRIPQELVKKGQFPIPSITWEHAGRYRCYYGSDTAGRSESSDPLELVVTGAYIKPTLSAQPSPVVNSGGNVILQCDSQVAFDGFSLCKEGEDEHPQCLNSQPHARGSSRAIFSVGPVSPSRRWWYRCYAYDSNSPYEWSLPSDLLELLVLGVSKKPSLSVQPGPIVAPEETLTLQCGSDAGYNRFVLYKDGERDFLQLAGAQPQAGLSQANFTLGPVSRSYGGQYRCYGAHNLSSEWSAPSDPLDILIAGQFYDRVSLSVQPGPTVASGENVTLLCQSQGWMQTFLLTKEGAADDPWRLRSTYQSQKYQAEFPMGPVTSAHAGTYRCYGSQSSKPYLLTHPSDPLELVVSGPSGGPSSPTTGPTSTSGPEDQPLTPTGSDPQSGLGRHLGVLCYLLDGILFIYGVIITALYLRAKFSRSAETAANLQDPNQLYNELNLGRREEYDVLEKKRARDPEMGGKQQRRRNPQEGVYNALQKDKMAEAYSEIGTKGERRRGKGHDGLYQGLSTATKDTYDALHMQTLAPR

In the case of Negative, the ELISA (OD) [1] is reported as 0.05 OD, the ELISA (OD) [2] is reported as 0.071 OD and the ELISA (OD) [3] is reported as 0.13 OD. The ELISA (OD) [4] was 0.0575 OD.

Work on “GHI/75 commercial mouse anti-human ILT2 antibody (BioLegend, Cat. No. 333704)” yielded an ELISA (OD) [5] of 2.45 OD.

B1: chimeric 15G8 (antibody, V domains shown)
VH: DVQLQGSGPGLVKPSQSLSLTCSVTGYSITSGYYWNWIRQFPGNKLEWMGYISYDGSNNYNPSLKNRISITRDTSKNQFFLKLNSVTSEDTATYYCAHGYSYYYAMDCWGQGTSVTVSS
VL: DIQMTQTTSSLSASLGDRVTISCRTSQDISNYLNWYQQKPDGTVKLLISYTSRLHSGVPSRFSGSGSGTDYSLTISNLEQEDIATYFCQQGNTLPTFGSGTKLEIK
notes: Constant regions not described; also called chimeric murine 15G8
For B1, the “EC50 (read off the curve)” value [6] was about 0.5 µg/mL and the “IC50 (read off the curve)” value [7] was about 0.2 µg/mL.

B2: humanized 15G8 (alanine variant) (antibody, V domains shown)
VH: B1 VH with Q16E, S17T, N44K, S69T, T71S, F80S, S88A, E89A, C108A
VL: DIQMTQSPSSLSASVGDRVTITCRTSQDISNYLNWYQQKPGKAVKLLISYTSRLHSGVPSRFSGSGSGTDYTLTISSLQPEDFATYYCQQGNTLPTFGQGTKLEIK
notes: also called 15G8 humanized antibody; humanized antibody 15G8
In the case of B2, the “EC50 (read off the curve)” value [6] is reported as about 0.5 µg/mL, the “IC50 (read off the curve)” value [7] is reported as about 0.2 µg/mL and the “IC50 (read off the curve)” value [8] is reported as about 0.3 µg/mL.

B3: 15G8 (original hybridoma-derived murine anti-ILT2 antibody) (antibody, V domains shown)
VH: B1 VH
VL: B1 VL
notes: also called 15G8 antibody
B3 was tested, and the binding result [9] was “no binding”, the “IC50 (read off the curve)” value [10] was about 3 µg/mL and the binding result [11] was “no binding”. B3: no binding [12].
